The text below walks through data of publication doi:10.1101/2023.09.20.558697.

Read-outs that look alike come from different tables or passages of the source.

Common to all, as to assay: EMSA
In data set [1] the target is T1, RokL6-His6 (Streptomyces coelicolor A3(2) M145, UniProt Q9L112 1-399).
T1 sequence: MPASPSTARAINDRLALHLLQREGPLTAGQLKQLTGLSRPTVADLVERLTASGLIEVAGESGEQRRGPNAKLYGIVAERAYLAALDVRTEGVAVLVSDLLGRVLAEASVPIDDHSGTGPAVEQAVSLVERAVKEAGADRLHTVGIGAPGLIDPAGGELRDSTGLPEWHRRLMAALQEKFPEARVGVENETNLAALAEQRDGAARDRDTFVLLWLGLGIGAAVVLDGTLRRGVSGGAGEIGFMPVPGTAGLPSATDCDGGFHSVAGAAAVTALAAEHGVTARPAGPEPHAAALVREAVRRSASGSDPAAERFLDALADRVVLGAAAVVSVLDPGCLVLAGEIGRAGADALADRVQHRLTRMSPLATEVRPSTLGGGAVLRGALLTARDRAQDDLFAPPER

For data set [2], the target named is T1, RokL6-His6. The source holds these as a separate data set.
Data set [3] deals with T1, RokL6-His6. This is another data set of the same source.

B1: RokL6-M3 (dsDNA)
DNA 1: CGCACCGGTAATCCACTATCGAATTCGCAGGCTCCGGATCCGTTTACGCCGCGGATTGAC
DNA 2: GTCAATCCGCGGCGTAAACGGATCCGGAGCCTGCGAATTCGATAGTGGATTACCGGTGCG
For the molecule B1, the binding result in the data set with RokL6-His6 [1] was “no binding”.

B2: hrdB-P (dsDNA)
DNA 1: CGGCCCGCCCGCACCGTCGGCCCATTCCCAAGCCGGTGGTCGGCCCCTGTCCGCCGTGGA
DNA 2: TCCACGGCGGACAGGGGCCGACCACCGGCTTGGGAATGGGCCGACGGTGCGGGCGGGCCG
In the case of B2, in the data set with RokL6-His6 [2], the binding result is “no binding”.

B3: RokL6-BS (dsDNA)
DNA 1: CGCACCGGTAATCCACTATCTATCAGGCAGGCTCCCTGATAGTTTACGCCGCGGATTGAC
DNA 2: GTCAATCCGCGGCGTAAACTATCAGGGAGCCTGCCTGATAGATAGTGGATTACCGGTGCG
For B3, the binding result with RokL6-His6 [3] is given as “binds”.
